Laboratory results reported in PMC10567836.

Biological target: CD45 on human peripheral blood mononuclear cells (human (endogenous in PBMC)) (UniProt P08575)
UniProt P08575, sequence (P08575 26-1306): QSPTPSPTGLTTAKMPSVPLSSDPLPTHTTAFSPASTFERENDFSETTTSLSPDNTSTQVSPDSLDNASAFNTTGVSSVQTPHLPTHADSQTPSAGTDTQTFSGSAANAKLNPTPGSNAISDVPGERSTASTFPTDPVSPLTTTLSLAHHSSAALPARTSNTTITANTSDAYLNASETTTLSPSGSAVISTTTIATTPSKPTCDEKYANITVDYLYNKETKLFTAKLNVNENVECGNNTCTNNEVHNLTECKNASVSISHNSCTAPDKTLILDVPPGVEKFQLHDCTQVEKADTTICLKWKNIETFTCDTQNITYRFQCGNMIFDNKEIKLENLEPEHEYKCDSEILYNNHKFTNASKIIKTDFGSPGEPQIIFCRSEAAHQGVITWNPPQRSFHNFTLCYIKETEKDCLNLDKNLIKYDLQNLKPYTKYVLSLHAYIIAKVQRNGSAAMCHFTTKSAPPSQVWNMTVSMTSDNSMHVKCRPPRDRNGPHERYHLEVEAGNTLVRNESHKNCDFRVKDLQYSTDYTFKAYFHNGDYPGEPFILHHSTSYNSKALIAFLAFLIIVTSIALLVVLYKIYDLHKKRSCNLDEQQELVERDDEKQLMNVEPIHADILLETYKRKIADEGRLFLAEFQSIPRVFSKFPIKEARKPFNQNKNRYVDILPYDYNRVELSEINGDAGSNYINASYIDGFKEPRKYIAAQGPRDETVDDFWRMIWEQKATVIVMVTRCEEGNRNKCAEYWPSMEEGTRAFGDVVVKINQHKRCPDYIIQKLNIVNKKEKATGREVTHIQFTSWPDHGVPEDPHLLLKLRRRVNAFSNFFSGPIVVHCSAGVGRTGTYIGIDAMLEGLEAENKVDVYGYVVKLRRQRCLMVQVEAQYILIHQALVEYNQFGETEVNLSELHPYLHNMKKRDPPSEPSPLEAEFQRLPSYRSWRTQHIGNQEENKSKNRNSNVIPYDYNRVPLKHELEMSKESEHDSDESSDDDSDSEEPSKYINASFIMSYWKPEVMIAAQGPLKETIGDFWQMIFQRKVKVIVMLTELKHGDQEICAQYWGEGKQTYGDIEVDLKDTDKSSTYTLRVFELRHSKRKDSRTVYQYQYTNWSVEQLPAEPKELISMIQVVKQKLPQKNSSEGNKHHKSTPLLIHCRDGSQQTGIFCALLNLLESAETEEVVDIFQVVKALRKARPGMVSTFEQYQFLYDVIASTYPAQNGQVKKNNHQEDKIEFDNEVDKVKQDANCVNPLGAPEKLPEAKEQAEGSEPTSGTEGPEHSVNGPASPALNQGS

Substance: HAdV-D64 (Ad19a) protein E3/49K expressed on porcine L23 cells (natural protein)
- phosphorylated p56lck(p505) in CD4+ T cells of human PBMC stimulated for 48 h with L23-E3/49K cells (15–20% with L23-control or L23-UL11 cells), intracellular flow cytometry (% of CD4+ T cells): 40
